Results published in PMC6174002.

Legend:
[1] = target: T1, RpoN (sigma54) (Leptospira biflexa strain Patoc 1 …, UniProt B0SR56 1-473); assay: EMSA
T1 sequence: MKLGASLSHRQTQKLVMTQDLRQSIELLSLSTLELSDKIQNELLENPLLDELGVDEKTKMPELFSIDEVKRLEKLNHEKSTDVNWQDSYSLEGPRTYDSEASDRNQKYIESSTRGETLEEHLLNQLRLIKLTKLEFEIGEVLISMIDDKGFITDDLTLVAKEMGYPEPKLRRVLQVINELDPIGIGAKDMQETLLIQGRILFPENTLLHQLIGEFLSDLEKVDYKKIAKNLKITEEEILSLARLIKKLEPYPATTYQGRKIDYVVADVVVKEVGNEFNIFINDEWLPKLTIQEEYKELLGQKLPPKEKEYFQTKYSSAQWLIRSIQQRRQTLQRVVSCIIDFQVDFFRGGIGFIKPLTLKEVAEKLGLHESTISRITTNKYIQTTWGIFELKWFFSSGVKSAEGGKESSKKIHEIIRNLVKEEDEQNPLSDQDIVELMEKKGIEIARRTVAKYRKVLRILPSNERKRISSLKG

[2] = target: T1, RpoN (sigma54); assay: competition

B1: rcfA promoter -24/-12 probe (dsDNA)
DNA 1: TAAGCCCAATATGCTTTTGGCACGATAGTTGCATCTATTCTACTG
DNA 2: TTCAGTAGAATAGATGCAACTATCGTGCCAAAAGCATATTGGGCTT
- binding result [1]: binds

B2: rcfA promoter cold competitor (dsDNA)
DNA 1: TAAGCCCAATATGCTTTTGGCACGATAGTTGCATCTATTCTACTG
DNA 2: TTCAGTAGAATAGATGCAACTATCGTGCCAAAAGCATATTGGGCTT
- binding result [2]: binds
